{
  "source": "paper PMC11848091",
  "about": "(Heliyon, 2025)",
  "binders": {"B1": {"name": "Mouse TNF (ligand)", "chain": "LRSSSQNSSDKPVAHVVANHQVEEQLEWLSQRANALLANGMDLKDNQLVVPADGLYLVYSQVLFKGQGCPDYVLLTHTVSRFAISYQEKVNLLSAVKSPCPKDTPEGAELKPWYEPIYLGGVFQLEKGDQLSAEVNLPKYLDFAESGQVYFGVIAL"}},
  "assay_in_all_cases": "SPR",
  "key": {"Mouse TNFR1": {"target": "T1, Mouse TNFR1 (mouse, UniProt P25118)", "T1 sequence": "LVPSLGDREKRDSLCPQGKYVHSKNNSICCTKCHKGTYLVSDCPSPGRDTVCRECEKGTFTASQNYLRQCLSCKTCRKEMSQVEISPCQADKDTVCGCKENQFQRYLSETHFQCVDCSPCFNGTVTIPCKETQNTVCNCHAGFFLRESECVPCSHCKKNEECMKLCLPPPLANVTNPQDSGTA"}, "Mouse CD163": {"target": "Mouse CD163 (mouse, UniProt Q2VLH6)", "sequence (Q2VLH6 39-1045)": "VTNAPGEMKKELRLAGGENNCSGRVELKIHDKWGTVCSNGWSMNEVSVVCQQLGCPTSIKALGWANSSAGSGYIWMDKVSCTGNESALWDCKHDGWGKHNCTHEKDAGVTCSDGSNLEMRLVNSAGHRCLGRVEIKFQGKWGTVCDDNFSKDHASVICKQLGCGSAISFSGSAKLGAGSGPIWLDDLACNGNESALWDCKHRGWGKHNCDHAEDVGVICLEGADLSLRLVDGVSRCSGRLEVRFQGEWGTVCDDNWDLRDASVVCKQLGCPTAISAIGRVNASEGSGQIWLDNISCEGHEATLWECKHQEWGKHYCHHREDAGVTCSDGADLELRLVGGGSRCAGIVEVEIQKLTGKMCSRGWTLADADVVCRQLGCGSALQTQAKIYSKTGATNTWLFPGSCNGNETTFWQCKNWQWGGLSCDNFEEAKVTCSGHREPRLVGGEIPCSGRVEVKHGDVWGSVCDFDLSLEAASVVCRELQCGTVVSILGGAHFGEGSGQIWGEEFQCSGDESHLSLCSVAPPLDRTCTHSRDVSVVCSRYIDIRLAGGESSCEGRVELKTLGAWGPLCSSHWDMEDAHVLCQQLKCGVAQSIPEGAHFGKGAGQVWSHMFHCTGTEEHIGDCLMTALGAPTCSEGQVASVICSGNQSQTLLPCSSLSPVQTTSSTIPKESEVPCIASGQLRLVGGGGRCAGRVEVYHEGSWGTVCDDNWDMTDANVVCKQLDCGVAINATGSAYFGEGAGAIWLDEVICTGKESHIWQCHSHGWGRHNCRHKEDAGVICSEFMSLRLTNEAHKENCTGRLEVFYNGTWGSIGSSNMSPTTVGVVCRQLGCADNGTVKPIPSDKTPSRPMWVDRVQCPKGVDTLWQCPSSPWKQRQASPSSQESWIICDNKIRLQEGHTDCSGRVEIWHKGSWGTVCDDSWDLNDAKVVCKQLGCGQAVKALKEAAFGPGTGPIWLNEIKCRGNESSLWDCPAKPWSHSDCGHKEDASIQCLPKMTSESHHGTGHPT"}, "Human CD163": {"target": "Human CD163 (human, UniProt Q86VB7)", "sequence (Q86VB7 42-1050)": "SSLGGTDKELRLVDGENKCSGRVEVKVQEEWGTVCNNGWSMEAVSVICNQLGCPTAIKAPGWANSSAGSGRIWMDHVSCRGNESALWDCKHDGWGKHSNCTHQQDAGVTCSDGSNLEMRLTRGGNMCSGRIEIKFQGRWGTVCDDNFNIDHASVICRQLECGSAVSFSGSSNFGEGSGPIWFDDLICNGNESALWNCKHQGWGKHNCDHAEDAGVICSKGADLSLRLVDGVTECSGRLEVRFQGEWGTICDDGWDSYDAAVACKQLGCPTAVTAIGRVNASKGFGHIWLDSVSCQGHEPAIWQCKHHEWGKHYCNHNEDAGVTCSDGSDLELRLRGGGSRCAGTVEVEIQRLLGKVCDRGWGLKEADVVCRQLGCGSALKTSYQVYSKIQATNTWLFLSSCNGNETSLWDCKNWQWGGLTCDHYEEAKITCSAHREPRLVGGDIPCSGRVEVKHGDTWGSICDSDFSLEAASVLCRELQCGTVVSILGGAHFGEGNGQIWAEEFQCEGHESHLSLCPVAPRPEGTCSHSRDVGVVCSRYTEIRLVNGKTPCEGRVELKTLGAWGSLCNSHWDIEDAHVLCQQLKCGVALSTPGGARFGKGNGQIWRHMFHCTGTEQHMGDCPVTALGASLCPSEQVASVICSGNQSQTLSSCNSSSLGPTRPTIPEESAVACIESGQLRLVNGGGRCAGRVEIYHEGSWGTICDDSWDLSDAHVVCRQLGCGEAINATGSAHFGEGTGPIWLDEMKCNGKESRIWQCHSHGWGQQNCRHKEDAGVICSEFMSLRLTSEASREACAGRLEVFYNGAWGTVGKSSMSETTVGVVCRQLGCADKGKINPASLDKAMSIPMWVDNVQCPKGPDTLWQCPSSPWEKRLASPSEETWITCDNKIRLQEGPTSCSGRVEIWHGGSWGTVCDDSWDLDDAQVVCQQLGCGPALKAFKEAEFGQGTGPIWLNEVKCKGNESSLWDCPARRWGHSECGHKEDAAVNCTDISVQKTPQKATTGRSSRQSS"}},
  "data": [
    {"binder": "B1", "values": [
      {"measurement": "Kd", "setting": "Mouse TNFR1", "result": 69.6, "unit": "nM"},
      {"measurement": "koff", "setting": "Mouse TNFR1", "result": 0.000379, "unit": "s⁻¹"},
      {"measurement": "kon", "setting": "Mouse TNFR1", "result": 5450, "unit": "M⁻¹ s⁻¹"},
      {"measurement": "Kd", "setting": "Mouse CD163", "result": 0.093, "unit": "nM"},
      {"measurement": "koff", "setting": "Mouse CD163", "result": 0.000232, "unit": "s⁻¹"},
      {"measurement": "kon", "setting": "Mouse CD163", "result": "2.5e+06", "unit": "M⁻¹ s⁻¹"},
      {"measurement": "Kd", "setting": "Human CD163", "result": 1.93, "unit": "nM"},
      {"measurement": "koff", "setting": "Human CD163", "result": 0.000151, "unit": "s⁻¹"},
      {"measurement": "kon", "setting": "Human CD163", "result": 78500, "unit": "M⁻¹ s⁻¹"}
    ]}
  ]
}
